Laboratory results published in patent publication US20130115189A1.

How the values were obtained:
[1] = target: IL-1 receptor; experiment: homogeneous time-resolved fluorescence (HTRF) receptor binding assay
[2] = target: IL-1 receptor; experiment: cell-based or functional assay

Substance | IC50 [1] | Bioactivity reduction (IL6 release, HeLa cells), ratio of EC50 to MA-wt [2] | Bioactivity reduction (Cytotoxicity, A375 cells), ratio of LC50 to MA-wt [2]
MDI-wt-His6 (from UniProt P01584 118-269) (ligand) | 1340 nM | 43 fold | 700 fold
MA-wt (interleukin-1β wild type sequence containing an N-terminal methionine) (from UniProt P01584 117-269) (ligand) | 20 nM | – | –
MDI-D145K-His6 (from UniProt P01584 118-269) (ligand) | 4810 nM | 60000 fold | 600000 fold
MA-D145K-His6 (from UniProt P01584 117-269) (ligand) | 28 nM | – | –

The remaining substances from weak to strong by IC50 [1], led by results:

IC50 [1] | Bioactivity reduction (IL6 release, HeLa cells), ratio of EC50 to MA-wt [2] | Substance | Bioactivity reduction (Cytotoxicity, A375 cells), ratio of LC50 to MA-wt [2]
6770 nM | 60000 fold | MDI-D145K-CG (from UniProt P01584 118-269) (ligand) | 600000 fold
31 nM | – | MA-wt-CG (from UniProt P01584 117-269) (ligand) | –
23 nM | – | MA-wt-His6 (from UniProt P01584 117-269) (ligand) | –
